Reference: US8404647B2, “Peptidylarginine deiminase (PAD) inhibitors” (Chiralix B.V., priority 2008, dated 2013)
Marks after values point to notes of the source that are not given here. Ends that are not written are not given here.

Legend:
PAD4 = PAD4 (Homo sapiens, UniProt Q9UM07); assay: Conversion (R to Cit) of substrate peptides by PAD4, mass spectrometry; assay type: biochemical; settings: for Conversion (%): PAD4; for Conversion by PAD4 (%): Table 10; for Conversion: Table 7, PAD4, test system with 3 times less enzyme
Excerpt: From previous studies it was known that D-S-Q-F-A-F-R-G-A-S-A-S-D (designated here as L1: SEQ ID NO: 11) is a substrate for PAD2 and PAD 4. To obtain better substrates, and subsequently powerful inhibitors, we intended to identify structural elements that improve substrate properties. A set of 152 individual analog peptides was generated, each differing from L1 by one amino acid at one of the positions −4 to −1 or 1 to 4.
In Table 3 the conversion of each analog (R to Cit conversion) is depicted. Values of the analogs relate to the conversion of the analog compared to the conversion of L1 under standard conditions (100 means a conversion equal to L1, 50 means conversion of 50% of that of L1, 175 means conversion of 175% of that of L1). Numbers above 100 thus relate to amino acid substitutions that improve substrate properties.
Peptides of table 4 are represented by the following sequences SEQ ID NO: 22-31 and 33-46. Control peptide are represented by the following sequences SEQ ID NO: 11 as control L1 and SEQ ID NO: 32 as control L2. Unfortunately, a substantial number of designed peptides were too polar to be analyzed on our LC-MS system (indicated in Table 4 as n.t., not trapped on the column). We therefore also generated and tested these peptides containing two additional N-terminal F-residues to increase hydrophobicity. In this form peptides were trapped on the column and could be analyzed (see Table 5).
Based on the above results we designed 20 peptides containing multiple amino acids that improve substrate properties (see Table 7). The indicated peptides were synthesized and tested in order to identify the best substrate from this group. Here we used a test system with less enzyme (3 times less) compared to the experiments described above.
(§1) Conversion of arginine into citrulline in the substrate peptides by PAD2 or PAD4 using mass spectrometry was performed as follows. A candidate substrate peptide was incubated with a PAD as indicated for several hours at 37° C. The reaction was quenched by the addition with acetic acid. A sample was analysed on a Qtof mass spectrometer (Micromass, UK) and the mass spectrum was compared with that of the same peptide not treated with PAD. Normally, 2^+- and 3^+-ions are detected. The conversion (ΔM=0.98 Da) was calculated on the 2^+- and 3^+-ions individually, and subsequently averaged taking into account the relative peak height of the 2^+- and 3^+-signals (see FIG. 5).

PAD2 = PAD2 (Homo sapiens, UniProt Q9Y2J8); assay: Conversion (R to Cit) of substrate peptides by PAD2, mass spectrometry; assay type: biochemical; settings: for Conversion by PAD2 (%): Table 10; for Conversion (%): Table 9, PAD2
Protocol: In a similar fashion as for PAD4 we identified improved peptide substrates for PAD2. Again L1 was used as a lead compound. The set of 152 peptides from Table 3 was used and testing was performed as described before.
as §1

[1] = Table 5, peptides with two additional N-terminal F-residues

Sequence of PAD2 (Q9Y2J8 whole entry): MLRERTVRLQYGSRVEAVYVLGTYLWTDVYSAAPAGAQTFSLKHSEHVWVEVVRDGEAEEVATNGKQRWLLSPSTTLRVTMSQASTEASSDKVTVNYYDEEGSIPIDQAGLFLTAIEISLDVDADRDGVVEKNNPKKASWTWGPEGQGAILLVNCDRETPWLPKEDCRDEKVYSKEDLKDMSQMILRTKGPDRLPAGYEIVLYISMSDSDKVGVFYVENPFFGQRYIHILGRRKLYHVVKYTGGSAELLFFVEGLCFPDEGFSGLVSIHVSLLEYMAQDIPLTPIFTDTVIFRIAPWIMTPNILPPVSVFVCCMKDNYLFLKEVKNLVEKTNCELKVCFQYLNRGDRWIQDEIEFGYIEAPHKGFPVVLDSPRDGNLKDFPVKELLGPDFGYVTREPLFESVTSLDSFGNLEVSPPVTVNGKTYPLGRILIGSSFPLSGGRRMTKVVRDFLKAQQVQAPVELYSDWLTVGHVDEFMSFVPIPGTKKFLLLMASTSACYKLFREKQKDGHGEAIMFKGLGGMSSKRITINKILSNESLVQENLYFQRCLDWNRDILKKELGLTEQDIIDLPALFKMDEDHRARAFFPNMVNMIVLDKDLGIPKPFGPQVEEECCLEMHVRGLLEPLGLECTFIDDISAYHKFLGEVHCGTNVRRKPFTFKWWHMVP
Sequence of PAD4 (Q9UM07 whole entry): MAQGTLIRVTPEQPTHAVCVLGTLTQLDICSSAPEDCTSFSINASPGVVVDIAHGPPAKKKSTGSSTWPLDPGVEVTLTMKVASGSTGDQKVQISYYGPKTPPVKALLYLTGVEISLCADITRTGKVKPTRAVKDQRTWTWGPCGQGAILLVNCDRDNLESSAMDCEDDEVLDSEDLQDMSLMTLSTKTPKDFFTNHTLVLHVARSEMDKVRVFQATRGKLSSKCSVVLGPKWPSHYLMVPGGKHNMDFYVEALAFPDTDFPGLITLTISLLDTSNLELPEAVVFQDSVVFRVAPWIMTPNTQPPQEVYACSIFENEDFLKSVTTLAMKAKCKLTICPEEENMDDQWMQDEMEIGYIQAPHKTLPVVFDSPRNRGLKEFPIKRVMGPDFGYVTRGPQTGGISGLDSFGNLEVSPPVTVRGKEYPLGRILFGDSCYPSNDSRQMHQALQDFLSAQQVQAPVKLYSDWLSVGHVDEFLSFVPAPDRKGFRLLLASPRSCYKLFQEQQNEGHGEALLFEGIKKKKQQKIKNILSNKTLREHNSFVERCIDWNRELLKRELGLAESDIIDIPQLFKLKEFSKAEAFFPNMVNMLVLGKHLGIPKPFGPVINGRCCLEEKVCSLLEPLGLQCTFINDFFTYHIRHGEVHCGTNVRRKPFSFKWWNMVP

Substance: D-S-H-H-F-H-R-E-Y-I-F-S-D (DSHHFHREYIFSD; not fully specified (C-terminus); printed as D-S-H-H-F-H-R-E-Y-I-F-S-D) [Peptide 0608-38]
- Conversion (%) (PAD4; Table 4, 13-mer peptides): 90%

Substance: D-S-H-H-L-S-R-D-F-M-Y-S-D (DSHHLSRDFMYSD; not fully specified (C-terminus); printed as D-S-H-H-L-S-R-D-F-M-Y-S-D) [Peptide 0608-39]
- Conversion (%) (PAD4; Table 4, 13-mer peptides): 95%

Substance: D-S-H-H-W-D-R-E-W-F-W-S-D (DSHHWDREWFWSD; not fully specified (C-terminus); printed as D-S-H-H-W-D-R-E-W-F-W-S-D) [Peptide 0608-40]
- Conversion (%) (PAD4; Table 4, 13-mer peptides): 100%

Substance: D-S-H-K-F-D-R-D-F-I-Y-S-D (DSHKFDRDFIYSD; not fully specified (C-terminus); printed as D-S-H-K-F-D-R-D-F-I-Y-S-D) [Peptide 0608-43]
- Conversion (%) (PAD4; Table 4, 13-mer peptides): 100%
- Conversion by PAD4 (%) (PAD4): 79%
- Conversion by PAD2 (%) (PAD2): 90 ** %

Substance: D-S-H-K-F-D-R-D-F-L-Y-S-D (DSHKFDRDFLYSD; not fully specified (C-terminus); printed as D-S-H-K-F-D-R-D-F-L-Y-S-D) [Peptide 0708-28]
- Conversion (PAD4): 53

Substance: D-S-H-K-H-S-R-E-W-L-W-S-D (DSHKHSREWLWSD; not fully specified (C-terminus); printed as D-S-H-K-H-S-R-E-W-L-W-S-D) [Peptide 0608-36]
- Conversion (%) (PAD4; Table 4, 13-mer peptides): 90%
- Conversion by PAD4 (%) (PAD4): 51%
- Conversion by PAD2 (%) (PAD2): 97%

Substance: D-S-H-K-L-D-R-E-Y-M-F-S-D (DSHKLDREYMFSD; not fully specified (C-terminus); printed as D-S-H-K-L-D-R-E-Y-M-F-S-D) [Peptide 0608-34]
- Conversion (%) (PAD4; Table 4, 13-mer peptides): 90%

Substance: D-S-H-K-L-H-R-E-W-M-W-S-D (DSHKLHREWMWSD; not fully specified (C-terminus); printed as D-S-H-K-L-H-R-E-W-M-W-S-D) [Peptide 0608-44]
- Conversion (%) (PAD4; Table 4, 13-mer peptides): 95%

Substance: D-S-H-K-W-H-R-D-F-F-Y-S-D (DSHKWHRDFFYSD; not fully specified (C-terminus); printed as D-S-H-K-W-H-R-D-F-F-Y-S-D) [Peptide 0608-35]
- Conversion by PAD4 (%) (PAD4): 73%
- Conversion by PAD2 (%) (PAD2): 92%

Substance: D-S-K-F-A-F-R-G-G-I-A-S-D (DSKFAFRGGIASD; not fully specified (C-terminus); printed as D-S-K-F-A-F-R-G-G-I-A-S-D) [Peptide 0735-41]
- Conversion by PAD4 (%) (PAD4): 25%
- Conversion (%) (PAD2): 90%
- Conversion by PAD2 (%) (PAD2): 90%

Substance: D-S-K-F-H-F-R-Y-A-V-A-S-D (DSKFHFRYAVASD; not fully specified (C-terminus); printed as D-S-K-F-H-F-R-Y-A-V-A-S-D) [Peptide 0735-35]
- Conversion by PAD4 (%) (PAD4): <20%
- Conversion (%) (PAD2): 92%
- Conversion by PAD2 (%) (PAD2): 92%

Substance: D-S-K-F-K-F-R-Y-A-Y-A-S-D (DSKFKFRYAYASD; not fully specified (C-terminus); printed as D-S-K-F-K-F-R-Y-A-Y-A-S-D) [Peptide 0735-34]
- Conversion by PAD4 (%) (PAD4): <20%
- Conversion (%) (PAD2): 91%
- Conversion by PAD2 (%) (PAD2): 91%

Substance: D-S-K-H-F-H-R-D-F-I-Y-S-D (DSKHFHRDFIYSD; not fully specified (C-terminus); printed as D-S-K-H-F-H-R-D-F-I-Y-S-D) [Peptide 0608-23]
- Conversion by PAD4 (%) (PAD4): 69%
- Conversion by PAD2 (%) (PAD2): 94%

Substance: D-S-K-H-K-D-R-E-Y-V-F-S-D (DSKHKDREYVFSD; not fully specified (C-terminus); printed as D-S-K-H-K-D-R-E-Y-V-F-S-D) [Peptide 0608-22]
- Conversion (%) (PAD4; Table 4, 13-mer peptides): 90%

Substance: D-S-K-H-K-S-R-D-F-V-Y-S-D (DSKHKSRDFVYSD; not fully specified (C-terminus); printed as D-S-K-H-K-S-R-D-F-V-Y-S-D) [Peptide 0608-27]
- Conversion by PAD4 (%) (PAD4): 69%
- Conversion by PAD2 (%) (PAD2): 94%

Substance: D-S-K-K-F-D-R-D-F-L-F-S-D (DSKKFDRDFLFSD; not fully specified (C-terminus); printed as D-S-K-K-F-D-R-D-F-L-F-S-D) [Peptide 0708-27]
- Conversion (PAD4): 51

Substance: D-S-K-K-H-D-R-D-H-L-F-S-D (DSKKHDRDHLFSD; not fully specified (C-terminus); printed as D-S-K-K-H-D-R-D-H-L-F-S-D) [Peptide 0708-21]
- Conversion (PAD4): 53

Substance: D-S-K-K-H-D-R-D-K-L-F-S-D (DSKKHDRDKLFSD; not fully specified (C-terminus); printed as D-S-K-K-H-D-R-D-K-L-F-S-D) [Peptide 0708-24]
- Conversion (PAD4): 35

Substance: D-S-K-K-W-S-R-E-Y-F-F-S-D (DSKKWSREYFFSD; not fully specified (C-terminus); printed as D-S-K-K-W-S-R-E-Y-F-F-S-D) [Peptide 0608-30]
- Conversion (%) (PAD4; Table 4, 13-mer peptides): 90%

Substance: D-S-K-W-F-D-R-D-H-L-Y-S-D (DSKWFDRDHLYSD; not fully specified (C-terminus); printed as D-S-K-W-F-D-R-D-H-L-Y-S-D) [Peptide 0708-16]
- Conversion (PAD4): 70

Substance: D-S-M-C-A-F-R-G-A-K-K-S-D (DSMCAFRGAKKSD) [Peptide 0735-31]
- Conversion (%) (PAD2): 59%

Substance: D-S-N-K-H-H-R-D-H-L-Y-S-D (DSNKHHRDHLYSD) [Peptide 0708-17]
- Conversion (PAD4): 38

Substance: D-S-N-W-H-H-R-D-H-L-Y-S-D (DSNWHHRDHLYSD) [Peptide 0708-19]
- Conversion (PAD4): 45

Substance: D-S-Q-C-L-F-R-G-A-F-A-S-D (DSQCLFRGAFASD) [Peptide 0735-40]
- Conversion (%) (PAD2): 73%

Substance: D-S-Q-F-A-F-R-G-A-F-W-S-D (DSQFAFRGAFWSD) [Peptide 0735-30]
- Conversion (%) (PAD2): 65%

Substance: D-S-Q-F-A-F-R-H-F-S-A-S-D (DSQFAFRHFSASD) [Peptide 0735-32]
- Conversion (%) (PAD2): 85%

Substance: D-S-Q-F-A-H-R-N-A-S-A-S-D (DSQFAHRNASASD) [Peptide 0735-28]
- Conversion (%) (PAD2): 35%

Substance: D-S-Q-F-A-Y-R-N-A-K-A-S-D (DSQFAYRNAKASD) [Peptide 0735-36]
- Conversion (%) (PAD2): 74%

Substance: D-S-Q-F-K-F-R-G-A-F-A-S-D (DSQFKFRGAFASD) [Peptide 0735-39]
- Conversion (%) (PAD2): 80%

Substance: D-S-Q-W-A-F-R-G-A-F-A-S-D (DSQWAFRGAFASD) [Peptide 0735-33]
- Conversion (%) (PAD2): 82%

Substance: D-S-Q-W-A-F-R-N-A-F-A-S-D (DSQWAFRNAFASD) [Peptide 0735-38]
- Conversion (%) (PAD2): 82%

Substance: D-S-W-K-A-F-R-G-A-S-A-S-D (DSWKAFRGASASD) [Peptide 0735-29]
- Conversion (%) (PAD2): 70%

Substance: D-S-W-W-H-K-R-D-K-L-Y-S-D (DSWWHKRDKLYSD) [Peptide 0708-23]
- Conversion (PAD4): 18

Substance: F-F-D-S-H-H-K-D-R-D-H-V-E-S-D (FFDSHHKDRDHVESD) [Peptide 0612-39]
- Conversion (%) (PAD4; [1]): 100%

Substance: F-F-D-S-H-H-L-S-R-D-F-M-Y-S-D (FFDSHHLSRDFMYSD) [Peptide 0612-41]
- Conversion (%) (PAD4; [1]): 98%

Substance: F-F-D-S-H-H-W-D-R-E-W-F-W-S-D (FFDSHHWDREWFWSD) [Peptide 0612-42]
- Conversion (%) (PAD4; [1]): 100%

Substance: F-F-D-S-H-K-H-H-R-D-H-L-E-S-D (FFDSHKHHRDHLESD) [Peptide 0612-43]
- Conversion (%) (PAD4; [1]): 100%

Substance: F-F-D-S-H-K-L-D-R-E-Y-M-F-S-D (FFDSHKLDREYMFSD) [Peptide 0612-36]
- Conversion (%) (PAD4; [1]): 100%

Substance: F-F-D-S-H-K-W-S-R-D-H-F-E-S-D (FFDSHKWSRDHFESD) [Peptide 0612-47]
- Conversion (%) (PAD4; [1]): 100%

Substance: F-F-D-S-K-H-F-H-R-D-F-I-Y-S-D (FFDSKHFHRDFIYSD) [Peptide 0612-25]
- Conversion (%) (PAD4; [1]): 100%

Substance: F-F-D-S-K-H-H-H-R-E-Y-L-F-S-D (FFDSKHHHREYLFSD) [Peptide 0612-28]
- Conversion (%) (PAD4; [1]): 100%

Substance: F-F-D-S-K-H-H-S-R-D-H-L-E-S-D (FFDSKHHSRDHLESD) [Peptide 0612-23]
- Conversion (%) (PAD4; [1]): 100%

Substance: F-F-D-S-K-H-K-D-R-E-Y-V-F-S-D (FFDSKHKDREYVFSD) [Peptide 0612-24]
- Conversion (%) (PAD4; [1]): 100%

Substance: F-F-D-S-K-H-W-D-R-D-H-F-E-S-D (FFDSKHWDRDHFESD) [Peptide 0612-27]
- Conversion (%) (PAD4; [1]): 100%

Substance: F-F-D-S-K-K-H-D-R-D-F-L-Y-S-D (FFDSKKHDRDFLYSD) [Peptide 0612-33]
- Conversion (%) (PAD4; [1]): 100%

Substance: F-F-D-S-K-K-L-H-R-D-H-M-E-S-D (FFDSKKLHRDHMESD) [Peptide 0612-31]
- Conversion (%) (PAD4; [1]): 88%
